The experiment deals with importin β1 (mouse (endogenous in 3T6)) (UniProt P70168). Kind of experiment: proximity ligation.
Sequence of importin β1 (mouse (endogenous in 3T6)) (P70168 whole entry): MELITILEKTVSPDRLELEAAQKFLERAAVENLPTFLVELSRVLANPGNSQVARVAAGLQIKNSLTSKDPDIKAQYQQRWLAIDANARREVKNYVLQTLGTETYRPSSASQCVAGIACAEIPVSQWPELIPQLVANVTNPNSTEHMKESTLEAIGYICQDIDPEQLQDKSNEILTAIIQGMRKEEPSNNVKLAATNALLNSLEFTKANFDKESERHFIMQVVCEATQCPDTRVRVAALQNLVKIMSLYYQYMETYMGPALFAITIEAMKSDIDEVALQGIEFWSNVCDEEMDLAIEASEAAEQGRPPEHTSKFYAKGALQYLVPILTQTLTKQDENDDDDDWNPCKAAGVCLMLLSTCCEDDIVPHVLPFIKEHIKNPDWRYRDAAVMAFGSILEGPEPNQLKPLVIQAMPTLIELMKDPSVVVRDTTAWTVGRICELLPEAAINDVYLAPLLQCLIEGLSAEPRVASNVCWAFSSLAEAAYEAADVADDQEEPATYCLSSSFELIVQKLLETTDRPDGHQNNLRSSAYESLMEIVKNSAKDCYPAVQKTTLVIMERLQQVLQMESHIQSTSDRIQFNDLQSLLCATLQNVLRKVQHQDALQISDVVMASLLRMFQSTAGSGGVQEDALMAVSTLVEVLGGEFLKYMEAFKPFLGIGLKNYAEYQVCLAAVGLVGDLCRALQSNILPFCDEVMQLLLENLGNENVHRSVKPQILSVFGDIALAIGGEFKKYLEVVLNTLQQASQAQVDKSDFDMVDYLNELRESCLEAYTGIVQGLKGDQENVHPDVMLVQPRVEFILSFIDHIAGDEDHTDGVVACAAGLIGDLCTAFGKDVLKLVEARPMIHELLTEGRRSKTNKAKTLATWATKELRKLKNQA

Sequence of wild type mouse polyomavirus (MPyV) virions, strain A3 (capsid proteins VP1, VP2 and VP3) (P03097 whole entry, looked up): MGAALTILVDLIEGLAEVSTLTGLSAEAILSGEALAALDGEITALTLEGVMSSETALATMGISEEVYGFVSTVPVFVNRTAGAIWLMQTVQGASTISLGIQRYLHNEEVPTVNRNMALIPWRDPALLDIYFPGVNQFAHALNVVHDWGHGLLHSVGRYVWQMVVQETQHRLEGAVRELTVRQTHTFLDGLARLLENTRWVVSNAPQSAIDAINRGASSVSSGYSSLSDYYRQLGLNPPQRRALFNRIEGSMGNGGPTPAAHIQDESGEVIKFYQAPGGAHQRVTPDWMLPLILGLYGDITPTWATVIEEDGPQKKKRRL
Sequence of wild type mouse polyomavirus (MPyV) virions, strain A3 (capsid proteins VP1, VP2 and VP3) (P03091 whole entry, looked up): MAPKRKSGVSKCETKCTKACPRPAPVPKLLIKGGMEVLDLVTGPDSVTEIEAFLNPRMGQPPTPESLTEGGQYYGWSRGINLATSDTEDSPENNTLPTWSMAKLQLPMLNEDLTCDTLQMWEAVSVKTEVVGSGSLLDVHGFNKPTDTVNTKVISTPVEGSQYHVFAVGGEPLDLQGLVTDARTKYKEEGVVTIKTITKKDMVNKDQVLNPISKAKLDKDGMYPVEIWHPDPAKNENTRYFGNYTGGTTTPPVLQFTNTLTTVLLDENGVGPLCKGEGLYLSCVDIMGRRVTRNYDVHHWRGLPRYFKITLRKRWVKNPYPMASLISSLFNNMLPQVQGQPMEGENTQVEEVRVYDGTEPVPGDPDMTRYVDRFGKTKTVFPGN

As to “wild type mouse polyomavirus (MPyV) virions, strain A3 (capsid proteins VP1, VP2 and VP3) (from UniProt P03091;P03097) (complex)”, the PLA spots per 50 cells (spots per 50 cells) is greater than 1000.

These data come from PMC5923459.
